Reference: patent US20160002357A1 (Pfizer, published 2016)
Where two headings read alike, the source gives them in different places.

How the values were obtained:
[1] = molecular target: T1, P-cadherin-ECD1-3-Fc protein (human P-cadherin-Fc) (human, UniProt P22223 108-440); experiment: phage scFv ELISA, coated P-cadherin-ECD1-3-Fc
T1 construct: Construct was expressed with signal peptide and pro-peptide (PACE co-transfected to process the propeptide); not shown: hinge and CH2 and CH3 domains of human IgG1
T1 sequence (P22223 108-440): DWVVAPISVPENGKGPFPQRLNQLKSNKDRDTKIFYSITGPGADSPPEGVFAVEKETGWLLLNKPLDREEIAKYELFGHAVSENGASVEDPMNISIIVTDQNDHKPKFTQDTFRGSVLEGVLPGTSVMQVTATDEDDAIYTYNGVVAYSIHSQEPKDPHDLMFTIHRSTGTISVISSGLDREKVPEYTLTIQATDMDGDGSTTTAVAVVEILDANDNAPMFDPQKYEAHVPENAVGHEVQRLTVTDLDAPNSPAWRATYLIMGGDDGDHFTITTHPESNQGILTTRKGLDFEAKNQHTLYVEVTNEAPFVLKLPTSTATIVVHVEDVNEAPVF
Experimental: (§1) P-cadherin-ECD1-3-Fc protein or negative control protein was coated overnight at 4° C. on 96-well Nunc Maxisorp® plates (Thermo Fisher Scientific, Madison, Conn.) at a concentration of 2 μg/mL in PBS+Ca²⁺ and Mg²⁺. Plates were washed three times using PBS+Ca²⁺ and Mg²⁺ and blocked for 1 hour at room temperature in 3% milk/PBS+Ca²⁺ and Mg²⁺. Phage samples prepared as described above were added to the blocked plates for 1 hour at room temperature. Plates were washed three times with PBS+Ca²⁺ and Mg²⁺ prior to the addition of secondary antibody (anti M13-HRP 1:2000, GE Healthcare, Piscataway, N.J.). Plates were incubated for a further 1 hour at room temperature and washed six times with PBS+Ca²⁺ and Mg²⁺. Signal was developed using TMB (SurModics, Eden Prairie, Minn.), the reaction stopped with H₂SO₄ and the absorbance read at 450 nm on an EnVision® plate reader (Perkin Elmer, Waltham, Mass.).

[2] = molecular target: T1, P-cadherin-ECD1-3-Fc protein (human …); experiment: phage scFv ELISA, coated P-cadherin-ECD1-3-Fc; remark: listed apart in the source
Experimental: ScFvs may be expressed on the surface of a phage particle. To prepare phage expressing scFv on their surface, 96-deep well plates containing 1 mL 2× TY media with 2% glucose/100 μg/mL ampicillin were inoculated with 0.5-1 μL from thawed glycerol stocks (one clone per well) using the QPix™2 Colony picker (Molecular Devices, Sunnyvale Calif.) and grown at 37° C. (900 rpm) for ˜4 hours. Next, 5 μL of a 1:29 dilution of helper phage (8.3×10¹³ pfu) was added and the plates and incubated for a further 30 minutes at 37° C. with no shaking then 1 hour at 300 rpm. Plates were centrifuged and the media was replaced with a kanamycin/non-glucose containing media (2× TY with 50 μg/mL kanamycin and 100 μg/mL ampicillin). Plates were grown overnight at 25° C. (900 rpm), and phage were harvested in the supernatant following centrifugation.
as §1

| Binder | % of binding of Clone #153 to human P-cadherin-Fc [1] [%] | Human P-cadherin-Fc binding (OD450) [1] [OD450] | Z Score [1] | % of binding of Clone #153 to human P-cadherin-Fc [2] [%] | Human P-cadherin-Fc binding (OD450) [2] [OD450] | Z Score [2] |
| --- | --- | --- | --- | --- | --- | --- |
| anti-P-cadherin scFv 153 alanine-mutant H2.9-Ala (scFv, V domains shown, scFv on phage) VH: EVQLVQSGAEVKKPGASVKVSCKASGYTFTSYGISWVRQAPGQGLEWMGWISAYNGNANYAQKLQGRVTMTTDTSTSTAYMELRSLRSDDTAVYYCATIDTANAFGIWGQGTMVTVSS VL: QSVLTQPPSVSAAPGQKVTISCSGSSSNIGNNYVSWYQQLPGTAPKLLIYDNNKRPSGIPDRFSGSKSGTSATLGITGLQTGDEADYYCGTWDSSLSGVVFGGGTKLTVL | 154 | 2.03 | 1.1 | – | – | – |
| anti-P-cadherin scFv 153 alanine-mutant H2.14-Ala (scFv, V domains shown, scFv on phage) VH: EVQLVQSGAEVKKPGASVKVSCKASGYTFTSYGISWVRQAPGQGLEWMGWISAYNGNTNYAQALQGRVTMTTDTSTSTAYMELRSLRSDDTAVYYCATIDTANAFGIWGQGTMVTVSS VL: QSVLTQPPSVSAAPGQKVTISCSGSSSNIGNNYVSWYQQLPGTAPKLLIYDNNKRPSGIPDRFSGSKSGTSATLGITGLQTGDEADYYCGTWDSSLSGVVFGGGTKLTVL | 117 | 1.54 | 0.4 | – | – | – |
| anti-P-cadherin scFv 153 alanine-mutant H3.1-Ala (scFv, V domains shown, scFv on phage) VH: EVQLVQSGAEVKKPGASVKVSCKASGYTFTSYGISWVRQAPGQGLEWMGWISAYNGNTNYAQKLQGRVTMTTDTSTSTAYMELRSLRSDDTAVYYCATADTANAFGIWGQGTMVTVSS VL: QSVLTQPPSVSAAPGQKVTISCSGSSSNIGNNYVSWYQQLPGTAPKLLIYDNNKRPSGIPDRFSGSKSGTSATLGITGLQTGDEADYYCGTWDSSLSGVVFGGGTKLTVL | 13 | 0.17 | -1.8 | – | – | – |
| anti-P-cadherin scFv 153 alanine-mutant H2.11-Ala (scFv, V domains shown, scFv on phage) VH: EVQLVQSGAEVKKPGASVKVSCKASGYTFTSYGISWVRQAPGQGLEWMGWISAYNGNTNAAQKLQGRVTMTTDTSTSTAYMELRSLRSDDTAVYYCATIDTANAFGIWGQGTMVTVSS VL: QSVLTQPPSVSAAPGQKVTISCSGSSSNIGNNYVSWYQQLPGTAPKLLIYDNNKRPSGIPDRFSGSKSGTSATLGITGLQTGDEADYYCGTWDSSLSGVVFGGGTKLTVL | 163 | 2.15 | 1.3 | – | – | – |
| anti-P-cadherin scFv 153 alanine-mutant H3.8-Ala (scFv, V domains shown, scFv on phage) VH: EVQLVQSGAEVKKPGASVKVSCKASGYTFTSYGISWVRQAPGQGLEWMGWISAYNGNTNYAQKLQGRVTMTTDTSTSTAYMELRSLRSDDTAVYYCATIDTANAFAIWGQGTMVTVSS VL: QSVLTQPPSVSAAPGQKVTISCSGSSSNIGNNYVSWYQQLPGTAPKLLIYDNNKRPSGIPDRFSGSKSGTSATLGITGLQTGDEADYYCGTWDSSLSGVVFGGGTKLTVL | 103 | 1.36 | 0.1 | – | – | – |
| anti-P-cadherin scFv 153 alanine-mutant H2.16-Ala (scFv, V domains shown, scFv on phage) VH: EVQLVQSGAEVKKPGASVKVSCKASGYTFTSYGISWVRQAPGQGLEWMGWISAYNGNTNYAQKLAGRVTMTTDTSTSTAYMELRSLRSDDTAVYYCATIDTANAFGIWGQGTMVTVSS VL: QSVLTQPPSVSAAPGQKVTISCSGSSSNIGNNYVSWYQQLPGTAPKLLIYDNNKRPSGIPDRFSGSKSGTSATLGITGLQTGDEADYYCGTWDSSLSGVVFGGGTKLTVL | 68 | 0.9 | -0.7 | – | – | – |
| anti-P-cadherin scFv 153 alanine-mutant H2.10-Ala (scFv, V domains shown, scFv on phage) VH: EVQLVQSGAEVKKPGASVKVSCKASGYTFTSYGISWVRQAPGQGLEWMGWISAYNGNTAYAQKLQGRVTMTTDTSTSTAYMELRSLRSDDTAVYYCATIDTANAFGIWGQGTMVTVSS VL: QSVLTQPPSVSAAPGQKVTISCSGSSSNIGNNYVSWYQQLPGTAPKLLIYDNNKRPSGIPDRFSGSKSGTSATLGITGLQTGDEADYYCGTWDSSLSGVVFGGGTKLTVL | 172 | 2.27 | 1.5 | – | – | – |
| anti-P-cadherin scFv 153 alanine-mutant H3.2-Ala (scFv, V domains shown, scFv on phage) VH: EVQLVQSGAEVKKPGASVKVSCKASGYTFTSYGISWVRQAPGQGLEWMGWISAYNGNTNYAQKLQGRVTMTTDTSTSTAYMELRSLRSDDTAVYYCATIATANAFGIWGQGTMVTVSS VL: QSVLTQPPSVSAAPGQKVTISCSGSSSNIGNNYVSWYQQLPGTAPKLLIYDNNKRPSGIPDRFSGSKSGTSATLGITGLQTGDEADYYCGTWDSSLSGVVFGGGTKLTVL | 168 | 2.22 | 1.4 | – | – | – |
| anti-P-cadherin scFv 153 alanine-mutant H2.13-Ala (scFv, V domains shown, scFv on phage) VH: EVQLVQSGAEVKKPGASVKVSCKASGYTFTSYGISWVRQAPGQGLEWMGWISAYNGNTNYAAKLQGRVTMTTDTSTSTAYMELRSLRSDDTAVYYCATIDTANAFGIWGQGTMVTVSS VL: QSVLTQPPSVSAAPGQKVTISCSGSSSNIGNNYVSWYQQLPGTAPKLLIYDNNKRPSGIPDRFSGSKSGTSATLGITGLQTGDEADYYCGTWDSSLSGVVFGGGTKLTVL | 152 | 2.01 | 1.1 | – | – | – |
| anti-P-cadherin scFv 153 alanine-mutant H3.5-Ala (scFv, V domains shown, scFv on phage) VH: EVQLVQSGAEVKKPGASVKVSCKASGYTFTSYGISWVRQAPGQGLEWMGWISAYNGNTNYAQKLQGRVTMTTDTSTSTAYMELRSLRSDDTAVYYCATIDTAAAFGIWGQGTMVTVSS VL: QSVLTQPPSVSAAPGQKVTISCSGSSSNIGNNYVSWYQQLPGTAPKLLIYDNNKRPSGIPDRFSGSKSGTSATLGITGLQTGDEADYYCGTWDSSLSGVVFGGGTKLTVL | 58 | 0.77 | -0.9 | – | – | – |
| anti-P-cadherin scFv 153 alanine-mutant H2.17-Ala (scFv, V domains shown, scFv on phage) VH: EVQLVQSGAEVKKPGASVKVSCKASGYTFTSYGISWVRQAPGQGLEWMGWISAYNGNTNYAQKLQARVTMTTDTSTSTAYMELRSLRSDDTAVYYCATIDTANAFGIWGQGTMVTVSS VL: QSVLTQPPSVSAAPGQKVTISCSGSSSNIGNNYVSWYQQLPGTAPKLLIYDNNKRPSGIPDRFSGSKSGTSATLGITGLQTGDEADYYCGTWDSSLSGVVFGGGTKLTVL | 162 | 2.14 | 1.3 | – | – | – |
| anti-P-cadherin scFv 153 alanine-mutant H3.9-Ala (scFv, V domains shown, scFv on phage) VH: EVQLVQSGAEVKKPGASVKVSCKASGYTFTSYGISWVRQAPGQGLEWMGWISAYNGNTNYAQKLQGRVTMTTDTSTSTAYMELRSLRSDDTAVYYCATIDTANAFGAWGQGTMVTVSS VL: QSVLTQPPSVSAAPGQKVTISCSGSSSNIGNNYVSWYQQLPGTAPKLLIYDNNKRPSGIPDRFSGSKSGTSATLGITGLQTGDEADYYCGTWDSSLSGVVFGGGTKLTVL | 61 | 0.8 | -0.8 | – | – | – |
| anti-P-cadherin scFv 153 alanine-mutant H2.15-Ala (scFv, V domains shown, scFv on phage) VH: EVQLVQSGAEVKKPGASVKVSCKASGYTFTSYGISWVRQAPGQGLEWMGWISAYNGNTNYAQKAQGRVTMTTDTSTSTAYMELRSLRSDDTAVYYCATIDTANAFGIWGQGTMVTVSS VL: QSVLTQPPSVSAAPGQKVTISCSGSSSNIGNNYVSWYQQLPGTAPKLLIYDNNKRPSGIPDRFSGSKSGTSATLGITGLQTGDEADYYCGTWDSSLSGVVFGGGTKLTVL | 101 | 1.34 | 0 | – | – | – |
| anti-P-cadherin scFv 153 alanine-mutant L1.1-Ala (scFv, V domains shown, scFv on phage) VH: EVQLVQSGAEVKKPGASVKVSCKASGYTFTSYGISWVRQAPGQGLEWMGWISAYNGNTNYAQKLQGRVTMTTDTSTSTAYMELRSLRSDDTAVYYCATIDTANAFGIWGQGTMVTVSS VL: QSVLTQPPSVSAAPGQKVTISCAGSSSNIGNNYVSWYQQLPGTAPKLLIYDNNKRPSGIPDRFSGSKSGTSATLGITGLQTGDEADYYCGTWDSSLSGVVFGGGTKLTVL | – | – | – | 166 | 2.19 | 1.4 |
| anti-P-cadherin scFv 153 alanine-mutant H3.3-Ala (scFv, V domains shown, scFv on phage) VH: EVQLVQSGAEVKKPGASVKVSCKASGYTFTSYGISWVRQAPGQGLEWMGWISAYNGNTNYAQKLQGRVTMTTDTSTSTAYMELRSLRSDDTAVYYCATIDAANAFGIWGQGTMVTVSS VL: QSVLTQPPSVSAAPGQKVTISCSGSSSNIGNNYVSWYQQLPGTAPKLLIYDNNKRPSGIPDRFSGSKSGTSATLGITGLQTGDEADYYCGTWDSSLSGVVFGGGTKLTVL | 171 | 2.26 | 1.5 | – | – | – |
| anti-P-cadherin scFv 153 alanine-mutant H3.7-Ala (scFv, V domains shown, scFv on phage) VH: EVQLVQSGAEVKKPGASVKVSCKASGYTFTSYGISWVRQAPGQGLEWMGWISAYNGNTNYAQKLQGRVTMTTDTSTSTAYMELRSLRSDDTAVYYCATIDTANAAGIWGQGTMVTVSS VL: QSVLTQPPSVSAAPGQKVTISCSGSSSNIGNNYVSWYQQLPGTAPKLLIYDNNKRPSGIPDRFSGSKSGTSATLGITGLQTGDEADYYCGTWDSSLSGVVFGGGTKLTVL | 23 | 0.31 | -1.6 | – | – | – |
